# Columns and labels:
# [1] = target: Dec E73R with a C-terminal histidine tag (phage L); assay: native gel or EMSA; native gel of purified Dec variants in solution
# [2] = target: Dec K30D with a C-terminal histidine tag (phage L); assay: as above
# [3] = target: Dec Y31A with a C-terminal histidine tag (phage L); assay: as above
# [4] = target: Dec Y49E with a C-terminal histidine tag (phage L); assay: as above
# [5] = target: Dec Y71A with a C-terminal histidine tag (phage L); assay: as above
# [6] = target: phage L decoration protein Dec, capsid-bound trimer in native phage L virions (phage L); assay: cryo-EM structure; native phage L virions, vitrified; icosahedral reconstruction, 4.2 Å; NMR OB-fold of Dec and a coat homology model fitted into the map
# [7] = target: phage P22 coat protein E81R:E323R, in P22 phage particles (phage P22) (UniProt P26747); assay: co-sedimentation; purified Dec added to purified P22 phages with WT or variant coat protein; free Dec separated by cesium chloride density gradient sedimentation; phage bands TCA-precipitated, SDS-PAGE, Coomassie bands of coat and Dec quantitated and normalized to the ratio in native P22 particles bound with Dec
substance,measurement,setting,value
Dec E73R with a C-terminal histidine tag (natural protein),stoichiometry N,[1],3
Dec K30D with a C-terminal histidine tag (natural protein),stoichiometry N,[2],3
Dec Y31A with a C-terminal histidine tag (natural protein),stoichiometry N,[3],3
Dec Y49E with a C-terminal histidine tag (natural protein),stoichiometry N,[4],3
Dec Y71A with a C-terminal histidine tag (natural protein),stoichiometry N,[5],3
"phage L decoration protein Dec, capsid-bound trimer in native phage L virions (natural protein)",stoichiometry N,[6],3
recombinant wild type Dec with a C-terminal histidine tag (natural protein),"Dec binding, normalized to WT (%)",[7],< 20%
